# Measured values published in patent publication US20220267412A1 (SERPLUS TECHNOLOGY, published 2022).
# B1: human neutrophil cathepsin G (enzyme, UniProt P08311 21-244, looked up)
# chain: IIGGRESRPHSRPYMAYLQIQSPAGQSRCGGFLVREDFVLTAAHCWGSNINVTLGAHNIQRRENTQQHITARRAIRHPQYNQRTIQNDIMLLQLSRRVRRNRNVNPVALPRAQEGLRPGTLCTVAGWGRVSMRRGTDTLREVQLRVQRDRQCLRIFGSYDPRRQICVGDRRERKAAFKGDSGGPLLCNNVAHGIVSYGKSSGVPPEVFTRVSSFLPWIRTTMRS
# notes: Bought purified enzyme; also called CatG
# B2: rhsB1M*, post-translationally modified (oxidized) monomeric form of rhsB1-cys344 (other)
# chain: MEQLSSANTRFALDLFLALSENNPAGNIFISPFSISSAMAMVFLGTRGNTAAQLSKTFHFNTVEEVHSRFQSLNADINKRGASYILKLANRLYGEKTYNFLPEFLVSTQKTYGADLASVDFQHASEDARKTINQWVKGQTEGKIPELLASGMVDNMTKLVLVNAIYFKGNWKDKFMKEATTNAPFRLNKKDRKTVKMMYQKKKFAYGYIEDLKCRVLELPYQGEELSMVILLPDDIEDESTGLKKIEEQLTLEKLHEWTKPENLDFIEVNVSLPRFKLEESYTLNSDLARLGVQDLFNSSKADLSGMSGARDIFISKIVHKSFVEVNEEGTEAAAATAGIATFCMLMPEENFTADHPFLFFIRHNSSGSILFLGRFSSP
# modifications: Cys-344 in an irreversibly oxidized state (chemical nature of the modification not determined)
# B3: rhsB1D, intermolecular disulfide-bonded dimeric form of rhsB1-cys344 (other)
# chain: MEQLSSANTRFALDLFLALSENNPAGNIFISPFSISSAMAMVFLGTRGNTAAQLSKTFHFNTVEEVHSRFQSLNADINKRGASYILKLANRLYGEKTYNFLPEFLVSTQKTYGADLASVDFQHASEDARKTINQWVKGQTEGKIPELLASGMVDNMTKLVLVNAIYFKGNWKDKFMKEATTNAPFRLNKKDRKTVKMMYQKKKFAYGYIEDLKCRVLELPYQGEELSMVILLPDDIEDESTGLKKIEEQLTLEKLHEWTKPENLDFIEVNVSLPRFKLEESYTLNSDLARLGVQDLFNSSKADLSGMSGARDIFISKIVHKSFVEVNEEGTEAAAATAGIATFCMLMPEENFTADHPFLFFIRHNSSGSILFLGRFSSP
# modifications: intermolecular disulfide bond Cys-344:Cys-344 between the two monomers
# Key:
# [1] = biological target: B2; assay: SDS-PAGE of enzyme:serpin complexes, no 2-ME
# [2] = biological target: B3; assay: SDS-PAGE of enzyme:serpin complexes, no 2-ME
# [3] = biological target: B1; assay: cell-based or functional assay
# [4] = biological target: porcine pancreatic elastase (porcine, UniProt P00772 27-266); assay: cell-based or functional assay
# [5] = biological target: TLCK-treated bovine alpha chymotrypsin (bovine, UniProt P00766 1-13; P00766 16-146; P00766 149-245); assay: cell-based or functional assay
# [6] = biological target: T1, human neutrophil elastase (human, UniProt P08246 30-247, limits assumed); assay: cell-based or functional assay
# T1 sequence (looked up): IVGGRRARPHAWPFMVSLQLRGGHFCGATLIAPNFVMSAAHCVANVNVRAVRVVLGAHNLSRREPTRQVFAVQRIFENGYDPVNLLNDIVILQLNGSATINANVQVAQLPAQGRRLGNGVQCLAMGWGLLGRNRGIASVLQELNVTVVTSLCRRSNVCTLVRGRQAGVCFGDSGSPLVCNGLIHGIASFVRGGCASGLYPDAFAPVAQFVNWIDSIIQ
# [7] = biological target: T2, neutrophil proteinase 3 (UniProt P24158 28-248, limits assumed); assay: cell-based or functional assay
# T2 sequence (looked up): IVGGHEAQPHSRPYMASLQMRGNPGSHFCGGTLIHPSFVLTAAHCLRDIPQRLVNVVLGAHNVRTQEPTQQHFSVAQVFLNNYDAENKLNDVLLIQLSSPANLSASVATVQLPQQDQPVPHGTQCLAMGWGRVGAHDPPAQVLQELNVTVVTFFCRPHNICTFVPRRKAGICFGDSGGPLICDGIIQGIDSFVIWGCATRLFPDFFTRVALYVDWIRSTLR
# Sequence of porcine pancreatic elastase (P00772 27-266): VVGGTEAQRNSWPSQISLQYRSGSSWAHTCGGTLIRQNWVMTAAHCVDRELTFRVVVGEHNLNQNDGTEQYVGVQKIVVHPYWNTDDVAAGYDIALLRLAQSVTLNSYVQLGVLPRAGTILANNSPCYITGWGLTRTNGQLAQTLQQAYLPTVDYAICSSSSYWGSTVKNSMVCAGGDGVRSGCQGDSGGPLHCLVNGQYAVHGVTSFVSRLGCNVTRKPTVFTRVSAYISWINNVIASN
binder,measurement,setting,value
B1,binding result,[1],binds
same,binding result,[2],binds
"recombinant human serpin B1, wild type (rhsB1-cys344), reduced active monomer (other) MEQLSSANTRFALDLFLALSENNPAGNIFISPFSISSAMAMVFLGTRGNTAAQLSKTFHFNTVEEVHSRFQSLNADINKRGASYILKLANRLYGEKTYNFLPEFLVSTQKTYGADLASVDFQHASEDARKTINQWVKGQTEGKIPELLASGMVDNMTKLVLVNAIYFKGNWKDKFMKEATTNAPFRLNKKDRKTVKMMYQKKKFAYGYIEDLKCRVLELPYQGEELSMVILLPDDIEDESTGLKKIEEQLTLEKLHEWTKPENLDFIEVNVSLPRFKLEESYTLNSDLARLGVQDLFNSSKADLSGMSGARDIFISKIVHKSFVEVNEEGTEAAAATAGIATFCMLMPEENFTADHPFLFFIRHNSSGSILFLGRFSSP",SOI with CatG against SOI with BC,[3],~2 fold of the SOI with BC
same,"inhibition of CatG, reduced dimer against unreduced dimer",[3],~2 fold against the unreduced dimer
same,"inhibition of cathepsin G, monomer against dimer",[3],2 fold more effective than rhsB1D
same,"amount of purified protein to fully inhibit PPE (typically 160 nM, 200 uL, +40 mM 2-ME)",[4],1 µg
same,"inhibition of chymotrypsin, monomer against dimer",[5],2 fold more effective than rhsB1D
same,"stoichiometry of inhibition (SOI), with 2-ME",[5],~0.5 molar ratio inhibitor:enzyme
same,stoichiometry of inhibition (SOI),[6],~2.1 molar ratio inhibitor:enzyme
human serpin B1 C344V variant (other) MEQLSSANTRFALDLFLALSENNPAGNIFISPFSISSAMAMVFLGTRGNTAAQLSKTFHFNTVEEVHSRFQSLNADINKRGASYILKLANRLYGEKTYNFLPEFLVSTQKTYGADLASVDFQHASEDARKTINQWVKGQTEGKIPELLASGMVDNMTKLVLVNAIYFKGNWKDKFMKEATTNAPFRLNKKDRKTVKMMYQKKKFAYGYIEDLKCRVLELPYQGEELSMVILLPDDIEDESTGLKKIEEQLTLEKLHEWTKPENLDFIEVNVSLPRFKLEESYTLNSDLARLGVQDLFNSSKADLSGMSGARDIFISKIVHKSFVEVNEEGTEAAAATAGIATFVMLMPEENFTADHPFLFFIRHNSSGSILFLGRFSSP,"amount of purified protein to fully inhibit PPE (typically 160 nM, 200 uL, +40 mM 2-ME)",[4],1.5 µg
B2,"stoichiometry of inhibition (SOI), with or without 2-ME",[5],~3 molar ratio inhibitor:enzyme
same,"stoichiometry of inhibition (SOI), with 2-ME",[6],~13 molar ratio inhibitor:enzyme
B3,SOI with CatG against SOI with BC,[3],~2 fold of the SOI with BC
same,"stoichiometry of inhibition (SOI), no 2-ME",[5],~1 molar ratio inhibitor:enzyme
human serpin B1 C344G variant (other) MEQLSSANTRFALDLFLALSENNPAGNIFISPFSISSAMAMVFLGTRGNTAAQLSKTFHFNTVEEVHSRFQSLNADINKRGASYILKLANRLYGEKTYNFLPEFLVSTQKTYGADLASVDFQHASEDARKTINQWVKGQTEGKIPELLASGMVDNMTKLVLVNAIYFKGNWKDKFMKEATTNAPFRLNKKDRKTVKMMYQKKKFAYGYIEDLKCRVLELPYQGEELSMVILLPDDIEDESTGLKKIEEQLTLEKLHEWTKPENLDFIEVNVSLPRFKLEESYTLNSDLARLGVQDLFNSSKADLSGMSGARDIFISKIVHKSFVEVNEEGTEAAAATAGIATFGMLMPEENFTADHPFLFFIRHNSSGSILFLGRFSSP,"amount of purified protein to fully inhibit PPE (typically 160 nM, 200 uL, +40 mM 2-ME)",[4],3.5 µg
"peroxynitrite oxidized (inactivated) wild-type rhsB1 (other, oxidized by peroxynitrite (Cys-344 per the filing; chemical nature not determined)) MEQLSSANTRFALDLFLALSENNPAGNIFISPFSISSAMAMVFLGTRGNTAAQLSKTFHFNTVEEVHSRFQSLNADINKRGASYILKLANRLYGEKTYNFLPEFLVSTQKTYGADLASVDFQHASEDARKTINQWVKGQTEGKIPELLASGMVDNMTKLVLVNAIYFKGNWKDKFMKEATTNAPFRLNKKDRKTVKMMYQKKKFAYGYIEDLKCRVLELPYQGEELSMVILLPDDIEDESTGLKKIEEQLTLEKLHEWTKPENLDFIEVNVSLPRFKLEESYTLNSDLARLGVQDLFNSSKADLSGMSGARDIFISKIVHKSFVEVNEEGTEAAAATAGIATFCMLMPEENFTADHPFLFFIRHNSSGSILFLGRFSSP","loss of PR3 inhibitory activity, 2-fold molar excess of inhibitor",[7],~40 % of inhibitory activity lost
human serpin B1 C344A variant (other) MEQLSSANTRFALDLFLALSENNPAGNIFISPFSISSAMAMVFLGTRGNTAAQLSKTFHFNTVEEVHSRFQSLNADINKRGASYILKLANRLYGEKTYNFLPEFLVSTQKTYGADLASVDFQHASEDARKTINQWVKGQTEGKIPELLASGMVDNMTKLVLVNAIYFKGNWKDKFMKEATTNAPFRLNKKDRKTVKMMYQKKKFAYGYIEDLKCRVLELPYQGEELSMVILLPDDIEDESTGLKKIEEQLTLEKLHEWTKPENLDFIEVNVSLPRFKLEESYTLNSDLARLGVQDLFNSSKADLSGMSGARDIFISKIVHKSFVEVNEEGTEAAAATAGIATFAMLMPEENFTADHPFLFFIRHNSSGSILFLGRFSSP,"amount of purified protein to fully inhibit PPE (typically 160 nM, 200 uL, +40 mM 2-ME)",[4],1 µg
